Test results published in patent US6387681.

Test system: NheI restriction endonuclease (R.NheI) (Neisseria mucosa heidelbergensis)
Assay: cleavage_in_vitro
Conditions: cell extract of clones #1 and #9; AvaI-linearized pBR322 cleaved into 1196 and 3165 bp fragments

**Q.** For “GCTAGC (double strand) [NheI site in AvaI-linearized pBR322]”, which activity (units per gram wet cells) is on record?
**A.** 1e+07
